The series relates to PAL. Put plainly: plate RNA binding assay (RiboGreen), immobilized PAL. The following applies: 12 mM HEPES/KOH pH 7.2, 135 mM KCl, 10 mM NaCl, 10% w/v glycerol, 0.5 mg/mL heparin, 0.5 mg/mL BSA, 25 C, 30 min, 465 nm light or dark, 100 or 1000 nM RNA.

On to “GGGAGGACGAUGCGGCCCGUACAGCAGCGAUGCGGGUCGCGUGUCCACCCCGGCUCAGACGACUCGCUGAGGAUCCGAGA [aptamer 53]”, for which the binding signal (% (normalization reference)) (blue light 465 nm) came to 100.

Regarding “GGGGUGGAAUCUUUACAGGACUAUCACGGUACAGCACCGAUGCCGGAUAGUCCUGUAAAGAUUCCACUU [SHCDK1m]”, the binding signal (% of aptamer 53 in light) turned out to be 3.97. In addition, the binding signal (% of aptamer 53 in light) (1000 nM RNA, dark (block inferred from row order), mean of 6 printed values) was 1.35.

Source of the values: paper PMC7518282.
